Article PMC9420396

Key:
DDX21 helicase core WT [1] = target: T1, DDX21 helicase core WT (human, UniProt Q9NR30 188-563); experiment: MST
T1 sequence: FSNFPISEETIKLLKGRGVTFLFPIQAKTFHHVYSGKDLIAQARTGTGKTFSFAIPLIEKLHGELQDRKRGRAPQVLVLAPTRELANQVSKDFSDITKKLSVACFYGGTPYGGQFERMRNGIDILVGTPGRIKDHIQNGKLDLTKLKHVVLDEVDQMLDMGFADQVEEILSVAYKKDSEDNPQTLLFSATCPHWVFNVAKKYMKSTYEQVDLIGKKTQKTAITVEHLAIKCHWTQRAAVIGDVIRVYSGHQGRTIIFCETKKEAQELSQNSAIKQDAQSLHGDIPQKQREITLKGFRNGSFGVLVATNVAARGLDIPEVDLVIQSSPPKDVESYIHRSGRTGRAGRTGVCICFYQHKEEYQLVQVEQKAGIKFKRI

DDX21 helicase core WT [2] = target: T1, DDX21 helicase core WT; experiment: SEC co-elution

Binder: UUUUUUUUUUUUUUU (ssRNA) [U15 RNA, 5'-FAM]
- binding result (DDX21 helicase core WT [1]): binds

Binder: UUUUUUUUUUUUUUU (ssRNA) [U15 RNA (SEC)]
- binding result (DDX21 helicase core WT [2]): binds
